Test results published in patent US20240409663A1 (CONCEPT TO MEDICINE BIOTECH, published 2024).
Read-outs that look alike come from different tables or passages of the source. One block for each molecule: values may come before it.

Columns and labels:
[1] = target: T1, human GPC3 on cells (human, UniProt P51654 25-554); test: FACS, HEPG2 cells
[2] = target: T1, human GPC3 on cells; test: FACS, Hep3B cells
[3] = target: T1, human GPC3 on cells; test: FACS, Huh-7 cells
[4] = target: T1, human GPC3 on cells; test: FACS, Hep3B cells; remark: listed apart in the source
[5] = target: T1, human GPC3 on cells; test: FACS, Huh-7 cells; remark: listed apart in the source
[6] = target: T1, human GPC3 on cells; test: FACS, HEPG2 cells; remark: listed apart in the source
[7] = target: T1, human GPC3 on cells; test: FACS, HEPG2 cells; remark: listed apart in the source
[8] = target: T1, human GPC3 on cells; test: FACS, Huh-7 cells; remark: listed apart in the source
[9] = target: T1, human GPC3 on cells; test: FACS, GPC3-CHOK1 cells
[10] = target: T1, human GPC3 on cells; test: FACS, GPC3-CHOK1 cells; remark: listed apart in the source
[11] = target: T1, human GPC3 on cells; test: FACS, GPC3-CHOK1 cells; remark: listed apart in the source
[12] = target: T1, human GPC3 on cells; test: FACS, GPC3-CHOK1 cells; remark: listed apart in the source
[13] = target: T1, human GPC3 on cells; test: FACS, GPC3-CHOK1 cells; remark: listed apart in the source
[14] = target: T1, human GPC3 on cells; test: cell-based or functional assay
[15] = target: T1, human GPC3 on cells; test: FACS, GPC3-CHOK1 cells; remark: listed apart in the source
[16] = target: T1, human GPC3 on cells; test: FACS on GPC3-CHOK1 cells, Alexa Fluor 647 anti-human IgG, AF647-MFI
[17] = target: T1, human GPC3 on cells; test: FACS, HEPG2 cells
Experimental: (§1) To evaluate the antigen binding property, the humanized antibodies were analyzed for their binding to human GPC3 over-expressed CHOK1 cells, HEPG2 cells, Hep3B cells and Huh-7 cells by FACS. Briefly, GPC3-CHOK1 cells, HEPG2 cells, Hep3B cells and Huh-7 cells were firstly incubated with Fc blocking reagent at 4° C. for 15 mins. Cells were washed by FACS buffer and divided to each well with 4-fold serially diluted humanized antibodies starting at 10 μg/mL at 4° C. for 60 mins. Cells were washed by FACS buffer and fixed with 2% PFA at RT for 15 mins. […] The 16 humanized antibodies were separated into two plates.

[18] = target: T1, human GPC3 on cells; test: FACS, Hep3B cells
Experimental: as §1

[19] = target: T1, human GPC3 on cells; test: FACS, Huh-7 cells
Experimental: as §1

[20] = target: T1, human GPC3 on cells; test: FACS, HEPG2 cells; remark: listed apart in the source
From the text: (§2) FACS was used to evaluate the binding activity of 52H5D3B8-6 #-VH1+VL1 and 52H5D3B8-6 #-VH2+VL3 with comparison to GC33 (Chugai Pharmaceutical) and Y035 (Carsgen Therapeutics, U.S. Patent Application US20190046659) on human GPC3 over-expressed CHOK1 cells and HEPG2 cells.

[21] = target: T1, human GPC3 on cells; test: FACS, GPC3-CHOK1 cells
Experimental: as §1

[22] = target: T1, human GPC3 on cells; test: FACS, GPC3-CHOK1 cells; remark: listed apart in the source
From the text: as §2

[23] = target: T1, human GPC3 on cells; test: cell-based or functional assay; remark: listed apart in the source
[24] = target: T1, human GPC3 on cells; test: cell-based or functional assay; remark: listed apart in the source
[25] = target: T2, human GPC3-his tag protein (human, UniProt P51654 25-559, limits assumed); test: SPR Biacore 8K, mAb captured, affinity ranking
T2 construct: recombinant soluble antigen used as analyte in all Biacore runs; also called recombinant GPC3 protein; rhGPC3-His; not shown: His tag
Experimental: To evaluate antigen binding activity, the chimeric antibody's affinity was measured by Biacore 8K. A serial dilution of human GPC3-his tag protein was injected over captured chimeric antibody 52H5D3B8-6 #-VH+VL for 3 mins at a flow rate of 30 μl/min. The antigen was allowed to dissociate for 720 s. Among the multi detection doses, two concentrations with most close affinity to the chimeric antibody's affinity were chosen for the 16 humanized antibodies' affinity detection.

[26] = target: T2, human GPC3-his tag protein; test: SPR Biacore, mAb captured on CM5, GPC3-his dilution series (full kinetics)
Experimental: The binding of the humanized antibodies to recombinant GPC3 protein (human GPC3-his tag) was tested by Biacore using a capture method. 52H5D3B8-6 #-V+VL, 52H5D3B8-6 #-VH1+VL1, 52H5D3B8-6 #-VH1+VL3, 52H5D3B8-6 #-V1+VL4, 52H5D3B8-6 #-VH2+VL4, 52H5D3B8-6 #-VH3+VL1, 52H5D3B8-6 #-VH3+VL3 mAbs were captured using CM5 sensor chip. A serial dilution of human GPC3-his tag protein was injected over captured antibody for 2 mins at a flow rate of […]. The antigen was allowed to dissociate for 360 s. All the experiments were carried out on a Biacore T200.

- EC50 [1]: 0.181 µg/mL
- EC50 [2]: 0.341 µg/mL
- EC50 [3]: 0.182 µg/mL
- EC50 [4]: 0.375 µg/mL
- EC50 [5]: 0.147 µg/mL
- EC50 [6]: 0.745 nM
- EC50 [7]: 1.28 nM
- EC50 [8]: 0.953 nM
- EC50 [9]: 0.122 µg/mL
- EC50 [10]: 0.166 µg/mL
- EC50 [11]: 0.131 µg/mL
- EC50 [12]: 0.956 nM
- EC50 [13]: 0.784 nM
- EC50 of ADCC signaling (Jurkat-hCD16a-NFAT luciferase reporter), HEPG2 cells [14]: 0.415 nM
- EC50 of ADCC signaling (Jurkat-hCD16a-NFAT luciferase reporter), Huh-7 cells [14]: 0.29 nM
- EC50 [15]: 0.993 nM
- EC50 (read off the curve) [16]: 0.1 µg/mL
Molecule: GC33 (Chugai Pharmaceutical) (antibody)
- EC50 of ADCC cytotoxicity (primary NK cells, LDH), HEPG2 cells [14]: 0.276 nM
- EC50 of ADCC cytotoxicity (primary NK cells, LDH), Huh-7 cells [14]: 0.172 nM

- EC50 [17]: 0.0411 µg/mL
- EC50 [18]: 0.0626 µg/mL
- EC50 [19]: 0.0362 µg/mL
- EC50 [20]: 0.342 nM
- EC50 [21]: 0.038 µg/mL
- EC50 [22]: 0.332 nM
- EC50 of ADCC signaling (Jurkat-hCD16a-NFAT luciferase reporter), HEPG2 cells [23]: 0.176 nM
- EC50 of ADCC signaling (Jurkat-hCD16a-NFAT luciferase reporter), Huh-7 cells [23]: 0.322 nM
- Kd [25]: 1.97 nM
- koff [25]: 0.00112 s⁻¹
- kon [25]: 567000 M⁻¹ s⁻¹
- Kd [26]: 2.24 nM
- koff [26]: 0.00111 s⁻¹
- kon [26]: 497000 M⁻¹ s⁻¹
B1: 52H5D3B8-6#-VH1+VL1 (antibody, V domains shown)
VH: QVQLVQSGAEVKKPGASVKVSCKASGYTFTDYEMHWVRQAPGQGLEWMGAIHPGSGGTAYNQKFKGRVTMTRDTSTSTVYMELSSLRSEDTAVYYCARYYSYAYWGQGTLVTVSS
VL: DIVMTQTPLSLSVTPGQPASISCRSSQSLVHSNGNTYLQWYLQKPGQSPQLLIYKVSNRFSGVPDRFSGSGSGTDFTLKISRVEAEDVGVYYCFQSIHVPYTFGGGTKLEIK
notes: humanized
- EC50 of ADCC cytotoxicity (primary NK cells, LDH), HEPG2 cells [24]: 0.0845 nM
- EC50 of ADCC cytotoxicity (primary NK cells, LDH), Huh-7 cells [24]: 0.108 nM
